This note sets out measurements from US20170081406A1.

In the first test the target is Human FcRn with human β2M on MDCK II clone 15 cells (human) (UniProt P55899).
Chain of Human FcRn with human β2M on MDCK II clone 15 cells (human) (P55899 24-365, chain 1 of 2): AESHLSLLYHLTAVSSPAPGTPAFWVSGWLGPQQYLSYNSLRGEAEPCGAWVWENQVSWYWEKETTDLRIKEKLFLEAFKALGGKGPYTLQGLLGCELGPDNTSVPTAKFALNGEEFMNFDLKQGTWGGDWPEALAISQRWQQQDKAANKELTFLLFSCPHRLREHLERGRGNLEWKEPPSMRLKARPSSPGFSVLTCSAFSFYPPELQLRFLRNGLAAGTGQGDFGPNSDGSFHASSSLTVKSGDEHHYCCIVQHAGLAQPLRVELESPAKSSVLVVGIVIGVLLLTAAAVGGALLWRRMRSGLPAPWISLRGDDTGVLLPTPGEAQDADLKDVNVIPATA
Chain of Human FcRn with human β2M on MDCK II clone 15 cells (human) (P61769 21-119, chain 2 of 2, further chain): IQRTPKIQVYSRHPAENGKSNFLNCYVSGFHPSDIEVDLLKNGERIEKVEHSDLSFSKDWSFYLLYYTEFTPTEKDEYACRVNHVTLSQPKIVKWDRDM
Experiment: not given
“human IgG1 Fc-multimer IgM tp L309C (from UniProt P0DOX5 228-449) (Fc fusion)” registered an EC50, inhibition of FcRn mediated IgG recycling (cell lysates), MDCK II clone 15 cells, biotinylated human IgG, MSD detection of 7.28 µg/mL.

For the substance “IgG1 Fc IgM tp L309 (wild type IgG1 Fc-multimer) (from UniProt P0DOX5 228-449) (Fc fusion)”, the EC50, inhibition of FcRn mediated IgG recycling (cell lysates), MDCK II clone 15 cells, biotinylated human IgG, MSD detection was 0.37 µg/mL and the EC50, inhibition of FcRn mediated IgG recycling (culture media), MDCK II clone 15 cells, biotinylated human IgG, MSD detection was determined as 0.33 µg/mL.

The target is the same in the next test. As to the kind of experiment: cell-based or functional assay.
In the case of “IgG1 IgM tail-piece, V308F (Fc-multimer) (Fc fusion)”, the Blockade of IgG intracellular uptake EC50 was determined as 0.12 µg/mL and the Blockade of IgG recycling EC50 worked out at 0.073 µg/mL.

For the substance “IgG4 IgM tail-piece, Wild-type (Fc-multimer) (Fc fusion)”, the Blockade of IgG intracellular uptake EC50 came out at 5.9 µg/mL and the Blockade of IgG recycling EC50 turned out to be 1 µg/mL.

“IgG4 IgM tail-piece, T307A (Fc-multimer) (Fc fusion)”: the Blockade of IgG intracellular uptake EC50 amounted to 0.5 µg/mL.

“IgG4 IgM tail-piece, V308F (Fc-multimer) (Fc fusion)” registered a Blockade of IgG intracellular uptake EC50 of 0.42 µg/mL and a Blockade of IgG recycling EC50 of 0.56 µg/mL.

The substance “IgG1 IgM tail-piece, H310L (Fc-multimer) (Fc fusion)” showed a Blockade of IgG recycling (% inhibition at 100 µg/ml) of 45.

Consider “IgG4 IgM tail-piece, V308P (Fc-multimer) (Fc fusion)”, for which the Blockade of IgG intracellular uptake EC50 was 0.51 µg/mL and the Blockade of IgG recycling EC50 turned out to be 0.42 µg/mL.

Turning to “IgG1 IgM tail-piece, Wild-type (Fc-multimer) (Fc fusion)”, the Blockade of IgG intracellular uptake EC50 came out at 4.4 µg/mL and the Blockade of IgG recycling EC50 turned out to be 0.33 µg/mL.

“IgG1 IgM tail-piece, T307A (Fc-multimer) (Fc fusion)” registered a Blockade of IgG intracellular uptake EC50 of 0.54 µg/mL and a Blockade of IgG recycling EC50 of 0.35 µg/mL.

Substance “IgG1 IgM tail-piece, V308P (Fc-multimer) (Fc fusion)” showed a Blockade of IgG intracellular uptake EC50 of 0.34 µg/mL and a Blockade of IgG recycling EC50 of 0.55 µg/mL.
